From the supplement of paper PMC9170038

Tested on: MS2 coat protein
Test: apparent KD of MS2 coat protein; designed switch direction (-1 OFF switch, 1 ON switch): 1; higher = weaker reporter binding
In short: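 Apparent KD, taken as the median over clusters for each design, was obtained by curve-fitting normalised cluster fluorescence. Designed RNA switches had been transcribed on Illumina chips by stalled E. coli RNA polymerase and titrated with SNAP-549-labelled MS2 coat protein, doubling from 0.7 or 1.5 nM to 3 µM.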

[1] = input ligand: microRNA oligo, concentration not stated
[2] = Eterna round: R95, input ligand: microRNA oligo, concentration not stated
[3] = Eterna round: R95, input ligand: FMN 200 uM
[4] = Eterna round: R95, input ligand: none

Sequence | apparent KD of MS2 coat protein (input ligand: FMN 200 uM) [µM] | apparent KD of MS2 coat protein [1] [µM] | apparent KD of MS2 coat protein (input ligand: none) [µM] | apparent KD of MS2 coat protein [2] [µM] | apparent KD of MS2 coat protein [3] [µM] | apparent KD of MS2 coat protein [4] [µM]
GCCGGCUGGUGAGGAUAUGGCGCCUUGUUGGUGCCAGAAGGCAUGUCUAUUGACAUGAGGAUCACCCAUGUGUUGUCGUUGGCG [salish99_SSNG1_r04_612] (Eterna round: R96, puzzle: Same State NG 1) | 0.536 | 0.108 | 0.183 |  |  | 
AAAAAAAAGUCAGGAUAUGAAUGGAAAGUACAUGAGGAUCACCCAUGUUAUGGAAAAAAAAAACGUUAGAAGGGAUAAAAAAAA [AK SSNG2-V2-1] (Eterna round: R96, puzzle: Same State NG 2) | 0.0613 | 0.0902 | 0.0623 |  |  | 
UGGUACAUGGGAGGAUAUCAUGUAGAAACAUGAGGAUCACCCAUGUAGUUGGCAGCUUUGCUGAAUGAGAAGGCCCAUGUACCU [JL SSNG1 3.59] (Eterna round: R96, puzzle: Same State NG 2) | 0.0206 | 0.0195 | 0.0267 |  |  | 
CGGCGCUGUCGAGAGGAUAUGCGGUGAUGGACAUGAGGAUCACCCAUGUUAGCGAUAGCAUCACGGUAGAAGGCUCUUACGCCUG [Soteed Omei mod 23] (Eterna round: R96, puzzle: Same State 2) | 0.217 | 0.257 | 0.717 |  |  | 
CAGCACUGUCGAGAGGAUAUGCGGUGAUGGACAUGAGGAUCACCCAUGUUAGCGACAGCAUCACGGCAGAAGGCUCUACUGCUGC [Soteed Omei mod 32] (puzzle: Same State 2) |  |  |  | 0.0123 |  | 
GUAGCAUACCGAGGAUAUUCAUUACAUGAGGAUCACCCAUGUUUAUUAUAGGCCAAAAGGCCUUGGGAGAAGGCGGAAUGCUAC [Xeonanis - 20 Mod12] (Eterna round: R96, puzzle: Same State NG 2) | 0.00836 | 0.00847 | 0.0107 |  |  | 
GGUGCGAAAUAAGCCUACAUGAGGAUCACCCAUGUAUGUAGGCAGGAUAUCGUAUGCAAAGCAUACGAGAAGGGCUGUCGCACC [Mat - Same State NG 3 - JL Mod - D48] (Eterna round: R96, puzzle: Same State NG 3) | 0.0332 | 0.061 | 0.0946 |  |  | 
ACAUGAGAUCUAGGAUAUAUAGUACCUACAUGUGACAUGAGGAUCACCCAUGUGGUAAGUAUGACAUAGAAGGAGAAGAUAUGU [Equivalance 96 - Jieux - Same State NG 2] (Eterna round: R96, puzzle: Same State NG 2) | 0.0372 | 0.0509 | 0.0555 |  |  | 
UUUGCAUGACGAGGAUAUCAUUUAUUUCAUGUUUGAGAAGGCGUUUUUUUUAUUACCUUACAUGAGGAUCACCCAUGUGUCUGU [JR_SSNG1_Sub044] (Eterna round: R96, puzzle: Same State NG 1) | 0.0322 | 0.0396 | 0.0485 |  |  | 
GGACGUCAAUCUCCUACUUAAACAUGAGGAUCACCCAUGUCACAGGAUAUGAGUCCGAUUAGGACUCAGAAGGGUGAGACGUCC [Fiskers NG3ss - 50] (Eterna round: R96, puzzle: Same State NG 3) | 0.0188 | 0.0152 | 0.016 |  |  | 
GAGUAGUACGGAGGAUAUGGGCAGAACAAGACACCAGAAGGCCGACAUGAGGAUGCUGGACAUGAGGAUCACCCAUGUACCUGA [Same State 1 S3] (Eterna round: R96, puzzle: Same State NG 1) | 0.0228 | 0.0926 | 0.0854 |  |  | 
UGAAUAUCUACAGGAUAUGAGUUGUAUAGUGGAUCAGAAGGGUGGGUGUUUUGCACGGUGUGUUACAUGAGGAUCACCCAUGUU [SameState NG1 #25] (Eterna round: R96, puzzle: Same State NG 1) | 0.302 | 0.139 | 0.324 |  |  | 
UGGCUCAGACGAGGAUAUAUGUGGUCACAUGAGGAUCACCCAUGUCUCGAGCUUCGGCUCGAGGCAUAGAAGGCGUCUGAGCCA [SSNG2/5-A2] (Eterna round: R96, puzzle: Same State NG 2) | 1.3 | 0.0508 | 0.632 |  |  | 
UGGUACAUGGGAGGAUAUCAUGUAGACACAUGAGGAUCACCCAUGUCGAUGGAGACAUCGGAGAUUGAGAAGGCCCAUGUACCU [JL SSNG1 3.55] (Eterna round: R96, puzzle: Same State NG 2) | 0.0186 | 0.291 | 0.647 |  |  | 
GCCAACGCAUGAGGAUAUGGCACCUUAUUGGUGCCAGAAGGCAUGUCUAUUGACAUGAGGAUCACCCAUGUAUUAUAGUUGGCA [Fiskers NG1ss - 15] (Eterna round: R96, puzzle: Same State NG 1) | 0.114 | 0.369 | 0.882 |  |  | 
GGUCCGGCCUGAGCUGGACCGAAGCAUGUACAUGAGGAUCACCCAUGUCAUGUACAGGCUUCUUGCUCGUCUUGUUG [JL-shm-2.15 JL Mod] (puzzle: Sensor for hsa-mir-208a) |  |  |  | 0.0166 | 0.0903 | 0.219
GAGAGAUGAUUAGGAUAUCCGGUGAUAAUGAUAGGAGAAGGAAUUGACAUGAGGAUCACCCAUGUGGGAAUAAUCCAGAGAGAG [Parity 23 - Jieux - Same State NG 1] (Eterna round: R96, puzzle: Same State NG 1) | 0.128 | 0.0544 | 0.107 |  |  | 
GGUCCAGCCUGAGCUGGACAAAAGCAUGUACAUGAGGAUCACCCAUGUCAUGUACAAGCUUUUUGCUCGUCUUAAUA [Mat - hsa-mir-208a - 89] (puzzle: Sensor for hsa-mir-208a) |  |  |  | 0.015 | 0.583 | 0.548
GUGGUGUAGAUACAGGAUAUGUUGCUCGUAACAUGAGGAUCACCCAUGUAUGUAUGAGAAUGAAUGCAGAAGGGUGCACACCACG [Mat - Same State 2 - Mod of UCT - D77] (puzzle: Same State 2) |  |  |  | 0.106 | 0.0138 | 0.159
GAGAGAUGAUUAGGAUAUUCGGUGAUAAUGAUAGAAGAAGGAAUUGACAUGAGGAUCACCCAUGUGGGAAUAAUCCAGAGAGAG [Parity 21 - Jieux - Same State NG 1] (Eterna round: R96, puzzle: Same State NG 1) | 0.148 | 0.0775 | 0.161 |  |  | 
AUUUUUAAUGCAGGAUAUGAUUAACAUGAGGAUCACCCAUGUGGUGUUGUGAGUAAGGAGAGUGAUCAGAAGGGCAUUUUGUUU [JMF's solution 83] (Eterna round: R96, puzzle: Same State NG 2) | 0.747 | 0.4 | 0.687 |  |  | 
AAGGUCUUCGUACAGGAUAUGCACUUGUGCACAUGAGGAUCACCCAUGUGGGAAAAGGUCACAGGGCAGAAGGGUAUUUAUAAAA [Erriti] (puzzle: Same State 2) |  |  |  | 0.0666 | 0.0394 | 0.103
GCGGAACGGGCCGACAUGAGGAUCACCCAUGUGGCCUCAUGUAAGGAUAUCGGGAAGAAGAAAACCGAGAAGGUACGGUGACGC [AK SSNG3-V2-31] (Eterna round: R96, puzzle: Same State NG 3) | 0.0472 | 0.0156 | 0.107 |  |  | 
UCUUGGUUUUUGCUCGUUUUUUGUGUUGAACAUGAGGAUCACCCAUGUAUUGUACGGUCCAGUUUGAUAAUGGUCCG [JMF 34] (Eterna round: R96, puzzle: Sensor for hsa-mir-208a) | 0.0352 | 0.0133 | 0.0402 |  |  | 
UACAAUCUAUCUGAGGAUAUCAUGAAAAAAACAUGAGGAUCACCCAUGUGCAGGAAAACUGCAUAUGAGAAGGCAGAUAGAUUGG [salish99_SS2_r3_007] (Eterna round: R96, puzzle: Same State 2) |  | 0.505 |  |  |  | 
AACAAUCUAUCUGAGGAUAUCAUGAAAUAAACAUGAGGAUCACCCAUGUGCAGGAAAACUGCAUAUGAGAAGGCAGAUUGAUUGA [salish99_ss2_r3_054] (puzzle: Same State 2) |  |  |  | 2.56 | 0.056 | 1.28
UUGAAGAAUUAAGGAUAUCGAGUCAAGAUGUAAAACAUGAGGAUCACCCAUGUGGGUUGCGGUAUCGAGAAGGUAAAUUACAAG [Mat - Same State NG 2 - JL mod - D52] (Eterna round: R96, puzzle: Same State NG 2) | 0.0241 | 0.0169 | 0.0354 |  |  | 
